From publication PMC10439028, “SGLT5 is the renal transporter for 1,5-anhydroglucitol, a major player in two rare forms of neutropenia” (Cellular and Molecular Life Sciences: CMLS, 2023)
Where a chain is given by its changes, count along the chain named. Names may count otherwise.

Columns and labels:
[1] = substrate: OC[C@H]1OC(O)[C@@H](O)[C@@H](O)[C@@H]1O; assay: Radioactive uptake assay (saturation kinetics) in HEK293T cells stably overexpressing human SGLT4; type: cell-based; conditions: other: transport of the labelled substrate, Fig. 2B; pH 7.4; 37.0 °C
Text: (§1) This assay was used to study (1) the transport of 1,5-AG or mannose by the HEK293T model cell lines that stably overexpressed the various transporters or by the transiently transfected HEK293T cells using JetPEI® as a transfection agent prepared as described above and (2) the substrate specificity of each transporter.
For a typical transporter experiment we proceeded as follows. […] To minimize cell loss during the various washing steps in the radioactive uptake experiments, the wells where the cells were seeded were previously coated with poly- D-lysine, which improved their adhesion to the plastic surface of the wells. For this, each well of the 24-well plates was treated with 200 µl of a 0.01% poly-L-lysine solution for 10 min, washed 3 times with 1 ml of sterilized water and left to dry for 2 h. Only then could the 24-well plates be seeded with the appropriate cell lines and cultured overnight at 37 °C in 5% CO2. […]
(§2) Once the uptake medium was added to the cells, the plates were incubated at 37 °C in 5% CO2 during the required time. […] In each experiment, the transport activities were calculated after subtracting a “blank” value, corresponding to the radioactivity in the appropriate control cells (HEK293T cells that were stably or transiently transfected with one of the parent plasmids pEF6/MycHisA, pEF6HisB, pUB82 or pUB83 with no inserted cDNA) that were analyzed in parallel.

[2] = substrate: OC[C@H]1OC[C@H](O)[C@@H](O)[C@@H]1O; assay: Radioactive uptake assay (saturation kinetics) in HEK293T cells stably overexpressing human SGLT5-iso2; type: cell-based; conditions: pH 7.4, 37.0 °C
Text: as §1
(§3) For a typical transporter experiment we proceeded as follows. […] To minimize cell loss during the various washing steps in the radioactive uptake experiments, the wells where the cells were seeded were previously coated with poly- D-lysine, which improved their adhesion to the plastic surface of the wells. For this, each well of the 24-well plates was treated with 200 µl of a 0.01% poly-L-lysine solution for 10 min, washed 3 times with 1 ml of sterilized water and left to dry for 2 h. Only then could the 24-well plates be seeded with the appropriate cell lines and cultured overnight at 37 °C in 5% CO2.
(§4) On day two, the radioactive uptake assay could be performed. The cell culture media was removed by aspiration and cells were incubated for 20 min at 37 °C and 5% CO2 with a basal medium (10 mM HEPES, pH 7.4, 1 mM CaCl2, 1 mM MgCl2, 2 mM KCl) containing 140 mM choline chloride to deplete intracellular […] ions. This was subsequently replaced with the uptake medium (basal medium + 140 mM NaCl, 25 μM cytochalasin B, 1 mg/ml BSA) containing either radioactive U-[^14C]-mannose (15,000 cpm/well) or 2-[^3H]-1,5-AG (30,000 cpm/well) and respectively, non-radioactive mannose or 1,5-AG, at the required concentration in the experiment. […]
as §2

[3] = substrate: OC[C@H]1OC(O)[C@@H](O)[C@@H](O)[C@@H]1O; assay: as above; type: cell-based; conditions: other: transport of the labelled substrate, Michaelis-Menten fit, Fig. 2B; pH 7.4; 37.0 °C
Text: as §1, §3, §4, §2

[4] = substrate: OC[C@H]1OC[C@H](O)[C@@H](O)[C@@H]1O; assay: 1,5-AG uptake in HEK293T cells overexpressing SGLT5 variant Arg401His; type: cell-based, human; conditions: other: variant Arg401His (rs754390288); pH 7.4; 37.0 °C
Method: as §3
(§5) On day two, the radioactive uptake assay could be performed. The cell culture media was removed by aspiration and cells were incubated for 20 min at 37 °C and 5% CO2 with a basal medium (10 mM HEPES, pH 7.4, 1 mM CaCl2, 1 mM MgCl2, 2 mM KCl) containing 140 mM choline chloride to deplete intracellular Na^2+ ions. […]
(§6) Once the uptake medium was added to the cells, the plates were incubated at 37 °C in 5% CO2 during the required time. […] In each experiment, the transport activities were calculated after subtracting a “blank” value, corresponding to the radioactivity in the appropriate control cells (HEK293T cells that were stably or transiently transfected with one of the parent plasmids pEF6/MycHisA, pEF6HisB, pUB82 or pUB83 with no inserted cDNA) that were analyzed in parallel. […]

[5] = substrate: OC[C@H]1OC[C@H](O)[C@@H](O)[C@@H]1O; assay: 1,5-AG uptake in HEK293T cells overexpressing SGLT5 variant Asn96Ile; type: cell-based, human; conditions: other: variant Asn96Ile (rs148178887); pH 7.4; 37.0 °C
Method: as §3, §5, §6

[6] = substrate: OC[C@H]1OC[C@H](O)[C@@H](O)[C@@H]1O; assay: 1,5-AG uptake in HEK293T cells overexpressing SGLT5 variant Ala522Val; type: cell-based, human; conditions: other: variant Ala522Val (rs12604020); pH 7.4; 37.0 °C
Method: as §3, §5, §6

[7] = substrate: OC[C@H]1OC(O)[C@@H](O)[C@@H](O)[C@@H]1O; assay: Radioactive uptake assay (saturation kinetics) in HEK293T cells expressing mouse SGLT4; type: cell-based; conditions: other: 30 min, Supplementary Fig. 4; pH 7.4; 37.0 °C
Method: as §3
On day two, the radioactive uptake assay could be performed. […]
as §6
Supplementary Fig. 4: Transport activities for 1,5-anhydroglucitol and mannose of recombinant mouse SGLT4 and SGLT5 isoforms measured in HEK293T cells. […]

B1: human SGLT4 (Homo sapiens) (protein)
chain: MSKELAAMGPGASGDGVRTETAPHIALDSRVGLHAYDISVVVIYFVFVIAVGIWSSIRASRGTIGGYFLAGRSMSWWPIGASLMSSNVGSGLFIGLAGTGAAGGLAVGGFEWNATWLLLALGWVFVPVYIAAGVVTMPQYLKKRFGGQRIQVYMSVLSLILYIFTKISTDIFSGALFIQMALGWNLYLSTGILLVVTAVYTIAGGLMAVIYTDALQTVIMVGGALVLMFLGFQDVGWYPGLEQRYRQAIPNVTVPNTTCHLPRPDAFHILRDPVSGDIPWPGLIFGLTVLATWCWCTDQVIVQRSLSAKSLSHAKGGSVLGGYLKILPMFFIVMPGMISRALFPDEVGCVDPDVCQRICGARVGCSNIAYPKLVMALMPVGLRGLMIAVIMAALMSSLTSIFNSSSTLFTIDVWQRFRRKSTEQELMVVGRVFVVFLVVISILWIPIIQSSNSGQLFDYIQAVTSYLAPPITALFLLAIFCKRVTEPGAFWGLVFGLGVGLLRMILEFSYPAPACGEVDRRPAVLKDFHYLYFAILLCGLTAIVIVIVSLCTTPIPEEQLTRLTWWTRNCPLSELEKEAHESTPEISERPAGECPAGGGAAENSSLGQEQPEAPSRSWGKLLWSWFCGLSGTPEQALSPAEKAALEQKLTSIEEEPLWRHVCNINAVLLLAINIFLWGYFA
notes: expressed in transfected cells
- Km [1]: 81 ± 8 µM

B2: human SGLT5 (Homo sapiens) (protein)
chain: MAANSTSDLHTPGTQLSVADIIVITVYFALNVAVGIWSSCRASRNTVNGYFLAGRDMTWWPIGASLFASSEGSGLFIGLAGSGAAGGLAVAGFEWNATYVLLALAWVFVPIYISSEIVTLPEYIQKRYGGQRIRMYLSVLSLLLSVFTKISLDLYAGALFVHICLGWNFYLSTILTLGITALYTIAGGLAAVIYTDALQTLIMVVGAVILTIKAFDQIGGYGQLEAAYAQAIPSRTIANTTCHLPRTDAMHMFRDPHTGDLPWTGMTFGLTIMATWYWCTDQVIVQRSLSARDLNHAKAGSILASYLKMLPMGLIIMPGMISRALFPDDVGCVVPSECLRACGAEVGCSNIAYPKLVMELMPIGLRGLMIAVMLAALMSSLTSIFNSSSTLFTMDIWRRLRPRSGERELLLVGRLVIVALIGVSVAWIPVLQDSNSGQLFIYMQSVTSSLAPPVTAVFVLGVFWRRANEQGAFWGLIAGLVVGATRLVLEFLNPAPPCGEPDTRPAVLGSIHYLHFAVALFALSGAVVVAGSLLTPPPQSVQIENLTWWTLAQDVPLGTKAGDGQTPQKHAFWARVCGFNAILLMCVNIFFYAYFA
notes: as for B1
- Km ([2]; other: hSGLT5 WT, Table 1 experiments): 226 ± 7 µM
- Km ([2]; other: transport of the labelled substrate, Michaelis-Menten fit, Fig. 2B): 167 µM
- Km [3]: 1729 ± 568 µM

B3: hSGLT5 Arg401His (Homo sapiens; R401H) (protein)
chain: B2 chain with R401H
notes: pUB83-hSGLT5-iso2 as well as the various SGLT5 mutants obtained were used to transduce HEK293T cells; expressed in transfected cells; host or cells: HEK293T, lentiviral transduction (pUB83)
- Km [4]: 331 ± 13 µM

B4: hSGLT5 Asn96Ile (Homo sapiens; N96I) (protein)
chain: B2 chain with N96I
notes: as for B3
- Km [5]: 1565 ± 302 µM

B5: hSGLT5 Ala522Val (Homo sapiens; A522V) (protein)
chain: B2 chain with A522V
notes: as for B3
- Km [6]: 210 ± 12 µM

B6: mouse SGLT4 (Mus musculus) (protein)
chain: MNTELVAMEPGVSRNGVRTETTTNPSLGLHTYDIVVVVIYFVFVLAVGIWSSIRASRGTVGGYFLAGRSMTWWPIGASLMSSNVGSGLFIGLAGTGAAGGLAVGGFEWNATFLLLALGWIFVPVYIAAGVVTMPQYLKKRFGGQRIQVYMSVLSLILYIFTKISTDIFSGALFIQMALGWNLYLSTVILLVVTAVYTIAGGLTAVIYTDALQTVIMVGGALVLMFLGFQEVGWYPGLQQLYRQAIPNTTVPNTTCHLPRPDAFHMLRDPVNGDIPWPGLIFGLTVLATWCWCTDQVIVQRSLAAKNLSHAKGGSVLGGYLKILPMFFIVMPGMISRALYPDEVACVDPDICQRVCGARVGCSNIAYPKLVMALMPVGLRGLMIAVIMAALMSSLTSIFNSSSTLFAIDVWQRFRRQASEQELMVVGRLFVVFLVVISILWIPIIQSSNSGQLFDYIQSITSYLAPPITALFLLAIFCKRVNEPGAFWGLMFGLVVGILRMILEFSYSAPACGEMDRRPAVLKDFHYLYFALLLCGLTAIIIVVISFFTEPIPDDKLARLTWWTRNCAVSDLQKKTSVSVNNTEDDNSPGLAGRPVVEGPAGDEEEANTTQGPEQPGALHRSWGKWLWNWFCGLSGAPQQALSPAEKAVLEQKLTSIEEEPLWRRVCNINAIILLAINIFLWGYFA
notes: expressed in transfected cells; host or cells: HEK293T
- Km [7]: 200 µM
